Experimental data published in paper PMC12373997.

Biological target: Taxol-stabilized microtubules polymerised from purified porcine brain tubulin (porcine) (UniProt P02550)
Test: co-sedimentation; tubulin co-sedimentation: taxol-stabilized MTs (varied, α/β-tubulin heterodimer molarity) with 1 µM purified N-clamp, 0.25 mg/ml BSA, BRB80-MT buffer (80 mM PIPES, 1 mM MgCl2, 1 mM EGTA, 12.5% glycerol, pH 6.8), 20 min at room temperature, 200,000 g 10 min 27 °C; SDS-PAGE densitometry of pellet; apparent Kd from a quadratic fit

X. laevis augmin N-clamp, wild type (HAUS2, HAUS6, HAUS7-EGFP-HIS8, HAUS8-HIS8), sequence (Q0IHJ3 whole entry, looked up, one chain of several): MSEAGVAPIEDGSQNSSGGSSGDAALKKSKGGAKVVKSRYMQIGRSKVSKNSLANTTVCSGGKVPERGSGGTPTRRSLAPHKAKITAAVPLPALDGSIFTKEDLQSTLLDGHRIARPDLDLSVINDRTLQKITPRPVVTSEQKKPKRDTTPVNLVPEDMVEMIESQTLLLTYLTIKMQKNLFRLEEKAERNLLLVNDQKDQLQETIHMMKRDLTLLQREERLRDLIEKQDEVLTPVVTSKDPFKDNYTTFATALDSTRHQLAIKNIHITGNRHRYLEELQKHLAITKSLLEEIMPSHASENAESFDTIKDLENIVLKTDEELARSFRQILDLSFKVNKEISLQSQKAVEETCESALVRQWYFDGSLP
X. laevis augmin N-clamp with HAUS8 lacking its N-terminal extension, sequence (Q0IHJ3 whole entry, looked up, one chain of several): as above
A. thaliana augmin N-clamp with AUG8 lacking its N-terminal extension, sequence (O48767 whole entry): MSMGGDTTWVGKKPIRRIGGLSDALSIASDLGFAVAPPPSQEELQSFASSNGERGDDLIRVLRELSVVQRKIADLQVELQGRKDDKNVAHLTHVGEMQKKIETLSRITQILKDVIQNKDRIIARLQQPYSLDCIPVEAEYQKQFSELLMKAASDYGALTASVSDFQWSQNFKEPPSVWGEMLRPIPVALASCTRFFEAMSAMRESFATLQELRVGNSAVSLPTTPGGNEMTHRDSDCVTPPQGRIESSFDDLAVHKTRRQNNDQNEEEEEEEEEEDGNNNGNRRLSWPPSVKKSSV
A. thaliana augmin N-clamp with AUG8 lacking its N-terminal extension, sequence (Q94BP7 whole entry): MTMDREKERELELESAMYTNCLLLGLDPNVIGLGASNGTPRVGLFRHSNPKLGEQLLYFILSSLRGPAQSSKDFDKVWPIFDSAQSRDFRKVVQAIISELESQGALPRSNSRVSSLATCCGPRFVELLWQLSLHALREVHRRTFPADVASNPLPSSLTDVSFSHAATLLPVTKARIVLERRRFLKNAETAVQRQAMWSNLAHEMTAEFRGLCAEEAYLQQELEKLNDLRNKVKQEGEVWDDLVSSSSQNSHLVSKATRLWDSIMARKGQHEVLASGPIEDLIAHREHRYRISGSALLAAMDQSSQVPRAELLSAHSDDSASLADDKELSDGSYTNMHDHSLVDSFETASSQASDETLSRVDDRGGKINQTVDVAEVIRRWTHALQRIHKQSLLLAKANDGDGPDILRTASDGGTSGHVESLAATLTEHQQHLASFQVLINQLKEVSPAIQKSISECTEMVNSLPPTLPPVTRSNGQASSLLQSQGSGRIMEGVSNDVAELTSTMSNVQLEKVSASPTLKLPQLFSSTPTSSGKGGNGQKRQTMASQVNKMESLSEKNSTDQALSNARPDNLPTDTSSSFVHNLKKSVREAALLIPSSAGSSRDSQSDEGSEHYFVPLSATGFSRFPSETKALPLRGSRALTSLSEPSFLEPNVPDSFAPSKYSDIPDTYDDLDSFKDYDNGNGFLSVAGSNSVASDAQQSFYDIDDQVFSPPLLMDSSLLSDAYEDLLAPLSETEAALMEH
A. thaliana augmin N-clamp with AUG8 lacking its N-terminal extension, sequence (Q0WTP1 whole entry): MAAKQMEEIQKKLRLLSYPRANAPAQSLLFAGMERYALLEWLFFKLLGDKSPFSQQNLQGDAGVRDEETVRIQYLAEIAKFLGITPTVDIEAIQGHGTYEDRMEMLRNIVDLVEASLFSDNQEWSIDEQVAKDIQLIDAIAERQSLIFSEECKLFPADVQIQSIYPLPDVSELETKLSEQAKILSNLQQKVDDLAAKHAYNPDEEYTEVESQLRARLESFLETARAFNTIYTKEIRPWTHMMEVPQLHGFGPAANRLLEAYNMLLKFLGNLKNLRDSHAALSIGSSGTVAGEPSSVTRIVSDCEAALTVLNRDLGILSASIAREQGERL
A. thaliana augmin N-clamp with AUG8 lacking its N-terminal extension, sequence (Q9SUH5 whole entry): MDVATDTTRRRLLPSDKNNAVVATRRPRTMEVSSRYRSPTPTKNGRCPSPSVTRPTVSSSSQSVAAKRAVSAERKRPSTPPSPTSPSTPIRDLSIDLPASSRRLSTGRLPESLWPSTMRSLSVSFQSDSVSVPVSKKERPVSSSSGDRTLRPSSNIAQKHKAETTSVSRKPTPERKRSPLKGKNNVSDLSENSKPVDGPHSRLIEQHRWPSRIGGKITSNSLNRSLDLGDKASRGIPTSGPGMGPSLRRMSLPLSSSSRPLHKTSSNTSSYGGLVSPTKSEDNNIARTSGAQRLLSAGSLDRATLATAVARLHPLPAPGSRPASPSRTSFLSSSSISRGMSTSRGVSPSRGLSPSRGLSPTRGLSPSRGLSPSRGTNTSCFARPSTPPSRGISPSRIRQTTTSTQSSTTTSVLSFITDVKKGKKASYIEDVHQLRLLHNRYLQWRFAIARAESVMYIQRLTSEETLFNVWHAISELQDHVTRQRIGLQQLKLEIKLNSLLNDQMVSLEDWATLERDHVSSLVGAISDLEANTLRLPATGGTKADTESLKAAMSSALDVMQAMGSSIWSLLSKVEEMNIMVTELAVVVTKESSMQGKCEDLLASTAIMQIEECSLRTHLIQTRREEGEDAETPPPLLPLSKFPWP

| Kd | Substance |
| --- | --- |
| 2.1 µM | A. thaliana augmin N-clamp with AUG8 lacking its N-terminal extension (from UniProt O48767 1-296; Q94BP7 1-741; Q0WTP1 1-329; Q9SUH5 1-644) (complex) |
| 0.01 µM | A. thaliana augmin N-clamp, wild type (orthologs of HAUS2, HAUS6, HAUS7-EGFP-HIS8, HAUS8-HIS8) (from UniProt O48767 1-296; Q94BP7 1-741; Q0WTP1 1-329; Q9SUH5 1-644) (complex) |
| 0.04 µM | GST-tagged D. melanogaster augmin N-clamp (Msd1, Dgt6, Msd5-EGFP-GST, Dgt4-HIS8) (from UniProt Q9W0G7 1-138; Q9VAP2 1-654; Q9W4M8 1-188) (complex) |
| 5.6 µM | H. sapiens augmin N-clamp with HAUS6^4A-mut (K84A, R90A, K91A, K98A) (from UniProt Q9NVX0 1-235; Q7Z4H7 1-955; Q99871 1-358; Q9BT25 1-410) (complex) |
| 0.8 µM | H. sapiens augmin N-clamp, wild type (HAUS2, HAUS6, HAUS7-EGFP-HIS8, HAUS8-HIS8) (from UniProt Q9NVX0 1-235; Q7Z4H7 1-955; Q99871 1-358; Q9BT25 1-410) (complex) |
| 2.2 µM | X. laevis augmin N-clamp with HAUS8 lacking its N-terminal extension (from UniProt Q0IHJ3 1-367; Q0IHJ3 1-367; Q0IHJ3 1-367) (complex) |
| 0.6 µM | X. laevis augmin N-clamp, wild type (HAUS2, HAUS6, HAUS7-EGFP-HIS8, HAUS8-HIS8) (from UniProt Q0IHJ3 1-367; Q0IHJ3 1-367; Q0IHJ3 1-367) (complex) |
